# Test results: patent US6673902B2, “Cyclin D binding factor, and uses thereof” (St. Jude Children's Research Hospital, priority 1996, dated 2004)
# B1: cyclin H: cyclin coexpressed with DMP1 (protein, UniProt Q61458 1-323, looked up)
# Cyclin-H: MYHSSSQKRHWTFASEEQLARLRADANRKFKCKAVANGKVLPNDPVFLEPHEELTLCKYYEKRLLEFCSVFKPAMPRSVVGTACMYFKRFYLNNSVMEYHPRIIMLTCAFLACKVDEFNVSSPQFVGNLRESPLGQERALEQILEYELLLIQQLNFHLIVHNPYRPFEGFLIDIKTRYPMLENPEILRKTADDFLSRIALTDAYLLYTPSQIALTAILSSASRAGITMESYLSESLMLKENRTCLSQLLDIMKSMRNLVKKYEPPRSDEVAVLKQKLERCHSSDLALNAVTKKRKGYEDDDYVSKKPKQEEEEWTDDDLVDSL
# Tested on: DMP1-responsive promoter (pGL2BS2)
# Assay: Transactivation of luciferase reporter plasmid under control of a DMP1-responsive promoter in NIH-3T3 fibroblasts
# Assay type: cell-based, mouse
# Details: Table 4; DMP1 coexpressed with the additive named as label (DMP1 row: no additive); vector without insert set to 1.0
# Excerpt: Coexpression of a D-type cyclin with DMP1 overrides the ability of DMP1 to transactivate a luciferase gene under the control of an artificial DMP1-responsive promoter (Table 4), as well as the ability of DMP1 to inhibit cell growth.
molecule,measurement,value
B1,Luciferase Activity,5.5
